Measurements reported in patent US20220396632A1 (VERSEAU THERAPEUTICS, published 2022).
Changes are numbered by the printed parent chain. Non-standard residues stand in square brackets, D forms with d. No end group written: not given here. *: point of attachment. Biotin = O=C1N[C@H]2[C@H](CS[C@H]2CCCCC(=O)*)N1; sY = N[C@@H](Cc1ccc(OS(=O)(=O)O)cc1)C(=O)O

T1: SulfoTyr C4 peptide (not fully specified; Y4, Y7 and Y9 sulfated (SO3); C-terminal biotin)
T1 construct: also called C4 alpha chain peptide; human sulfotyrosinylated C4 peptide
T1 peptide: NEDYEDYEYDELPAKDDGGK

T2: Human fibrinogen protein (ThermoFisher, RP-43142) (human, UniProt P02671 20-629; P02675 31-491; P02679 27-453, limits assumed, natural sulfotyrosines)
T2 construct: mature; Native dimer with 3 pairs of non-identical chains; also called gamma-fibrinogen; γ fibrinogen protein
T2 sequence (looked up) 1: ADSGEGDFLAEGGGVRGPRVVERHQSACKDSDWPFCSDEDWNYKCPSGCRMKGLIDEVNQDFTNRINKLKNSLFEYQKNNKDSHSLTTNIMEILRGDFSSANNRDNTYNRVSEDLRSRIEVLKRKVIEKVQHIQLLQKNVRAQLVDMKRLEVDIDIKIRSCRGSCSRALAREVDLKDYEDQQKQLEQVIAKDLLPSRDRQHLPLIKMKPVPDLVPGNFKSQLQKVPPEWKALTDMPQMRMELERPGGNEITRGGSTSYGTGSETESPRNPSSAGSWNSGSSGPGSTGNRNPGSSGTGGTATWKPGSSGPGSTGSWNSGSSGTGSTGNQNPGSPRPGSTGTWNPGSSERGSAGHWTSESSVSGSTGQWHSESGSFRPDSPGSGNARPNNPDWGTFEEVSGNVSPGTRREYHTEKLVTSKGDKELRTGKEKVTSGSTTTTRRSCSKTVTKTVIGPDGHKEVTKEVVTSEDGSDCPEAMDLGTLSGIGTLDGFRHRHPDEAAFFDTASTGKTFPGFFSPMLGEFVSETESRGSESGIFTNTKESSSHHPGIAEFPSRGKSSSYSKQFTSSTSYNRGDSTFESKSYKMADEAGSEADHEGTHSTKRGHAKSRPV
T2 sequence (looked up) 2: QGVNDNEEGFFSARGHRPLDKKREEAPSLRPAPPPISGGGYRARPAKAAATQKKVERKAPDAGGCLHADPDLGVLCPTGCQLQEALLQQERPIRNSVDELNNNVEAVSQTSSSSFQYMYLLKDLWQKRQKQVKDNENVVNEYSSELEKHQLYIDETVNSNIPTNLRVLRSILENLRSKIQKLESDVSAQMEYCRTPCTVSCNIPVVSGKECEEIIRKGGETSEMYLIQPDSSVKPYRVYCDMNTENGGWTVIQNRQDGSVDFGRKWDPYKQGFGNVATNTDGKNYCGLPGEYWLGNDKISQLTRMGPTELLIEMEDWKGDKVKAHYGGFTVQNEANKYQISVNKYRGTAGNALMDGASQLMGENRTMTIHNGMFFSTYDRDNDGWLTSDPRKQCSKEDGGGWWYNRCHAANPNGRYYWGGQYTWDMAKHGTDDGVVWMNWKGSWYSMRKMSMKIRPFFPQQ
T2 sequence (looked up) 3: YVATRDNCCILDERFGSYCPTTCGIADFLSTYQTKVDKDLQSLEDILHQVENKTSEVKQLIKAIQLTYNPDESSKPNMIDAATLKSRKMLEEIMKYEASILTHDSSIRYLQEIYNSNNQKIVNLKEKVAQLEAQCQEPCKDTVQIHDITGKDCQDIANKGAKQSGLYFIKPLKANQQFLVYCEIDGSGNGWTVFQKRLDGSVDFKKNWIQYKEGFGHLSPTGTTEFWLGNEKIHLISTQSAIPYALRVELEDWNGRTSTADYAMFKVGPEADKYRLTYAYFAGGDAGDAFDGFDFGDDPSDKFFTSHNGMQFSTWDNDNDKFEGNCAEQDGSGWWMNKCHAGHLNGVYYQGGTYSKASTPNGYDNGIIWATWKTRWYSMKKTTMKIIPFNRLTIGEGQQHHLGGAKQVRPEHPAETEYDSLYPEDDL

T3: SulfoCCK biotin peptide (human)
T3 construct: also called sulfotyrosine CCK peptide
T3 peptide: SHRISDRD[sY]MGWMDFGGK(Biotin)

T4: Sulfotyrosine D6 biotin peptide (human)
T4 construct: also called D6 peptide
T4 peptide: ENSSFY[sY][sY]D[sY]LDEVAFGGK(Biotin)

B1: 09A02 (antibody, IgG4, V domains shown)
VH: EVQLVQSGGGLVKPGGSLRLSCAASGFTFRTAWMSWVRQAPGKGLEWVGRMKSKNDGGTTDYAAPVKGRFTISRDDSRDTVYLQMNSLKTEDTGVYYCATYAAGATVPWGQGTLVTVSS
VL: DIVMTQTPLSAPVTLGQPASISCRSSRSLLQRNGYNYVDWYQQKAGNPPRLLIYLGSRRASGVPDRFSGSGSDKDFTLKISRVEADDVGFYFCKQSLQAPPTFGGGTKIEIT
B2: 05E08 (antibody, IgG4, V domains shown)
VH: EVQLVQSGGGVVQPGRSLRLSCAASGFTFSTYAMHWVRQAPGKGLEWVAVISYDGSNKYYADSVKGRFTISRDNSRNTLFLQMNSLRDEDTAVYYCAKRGTMIRGERSLDFWGQGTLVTVSS
VL: AIQMTQSPSFLSASVGDRVTITCRASQGINSWLAWYQQKPGTAPNLLIHAASTLQSGVPSRFSGSRSGTEFTLTISSLQPEDFATYYCQQLQSYPLTFGQGTRLEIK
B3: 09D04 (antibody, IgG4, V domains shown)
VH: QVQLQQSGGGLVQPGGSLTLSCVGSGFDFRSYAMSWVRQAPGKGLEWVSGINNSGSKTYYADFVKGRFSVSRDNSKNIVWLRMRSLRAEDTAVYYCARRTFGPPHAWGQGTMVTVSS
VL: DVVMTQSPLSLPVTPGEPASISCRSSQSLLHSNGYTYLEWYLHKPGQSPQLLIYLGSNRASGVPDRFSGSGSGTDFTLKISRVEAEDVGVYYCMHSLHIPFTFGPGTKVDIK
B4: 05H03 (antibody, IgG4, V domains shown)
VH: B3 VH
VL: DIVMTQSPLSLSVTPGEPASISCRSSQSLLHSNGYKYLDWYLQKPGQSPQLLIYMGSNRASGVPDRFSGSGSGTDFTLKISRVEAEDVGVYYCMQGLQSPLTFGGGTKVEIE
B5: 03F03 (antibody, V domains shown)
VH: QVQLQESGPGLVKPSETLSLTCTVSGGSISSSSYYWGWIRQPPGKGLEWIGSIYYSGSTYYNPSLKSRVTISVDTSKNQFSLKLSSVTAADTAVYYCARSRPRPWAFDIWGQGTMVTVSS
VL: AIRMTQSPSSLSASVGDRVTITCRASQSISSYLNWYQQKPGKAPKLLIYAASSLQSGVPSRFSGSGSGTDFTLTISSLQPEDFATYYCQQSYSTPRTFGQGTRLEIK
B6: 05A11 (antibody, IgG4, V domains shown)
VH: EVKLLESGGGVVQPGRSLRLSCAASGFSFSAYGMHWVRQAPGKGLEWVSSISGSGDGTYYADSVKGRFTISRDNSKNTLYLQMNSLRAEDAAVYYCAKSVKGRGYFFDYWGQGTLVTVSS
VL: DIVLTQSPSSLSASVGDRVTITCRASQSISSYLNWYQQKPGKAPKLLIYAASSLQSGVPSRFSGSGSGTDFTLSISNLQPEDFATYYCQQAYKFPRSFGGGTKVEFK
B7: 05D01 (antibody, V domains shown)
VH: QVTLRESGGALVQPGGSLRLSCAASGFPLRSNAMTWVRQAPGKGLEWVSDIRGNGASTYYADSVKGRFTISRDDSNNILFLQMNSLRAEDTAVYYCVGHGSSSYWGQGTLVTVSS
VL: DVVMTQSPLSLPVTLGQPASISCRSSQSLVYRDGNIYLNWFQQRPGQSPRRLIYKVSNRDSGVPDRFSGSGSGTDFTLKISRVEAEDVGVYYCMQLTHWPPGFAQGTKLEIK
B8: 09A08 (antibody, IgG4, V domains shown)
VH: QVQLVQSGAAVKKPGESLKISCKGSGYTFSNYWIGWVRQMPGKGLEWMGIIYPGDSDTRYSPSFQGQVTISADKSISTAYLQWSSLKASDTAMYYCARHIVGPPKSAFDIWGQGTMVTVSS
VL: DIVMTQTPLSLPVTLGQPASISCSSSQGLQKRDGNTYLNWFQQRPGQSPRRLIYKVSNRDSGVPDRFSGSGSGTDFTLKISRVEAEDVGVYYCMQGTHWPWTFGQGTRVEIK
B9: 07E07 (antibody, IgG4, V domains shown)
VH: QVQLQQSGAEVKKPGASVKVSCKASGYTFTSYYMHWVRQAPGQGLEWMGIINTSSGSTKYAQRFQDRVTVTRDTSTTTVYMELNSLRSEDTAVYYCARGGRAYSGSFDNWGQGTLVTVSS
VL: B7 VL with Y31H, I36T, L38F, L96A, P101R, G102T, A104G, L109V
B10: 05C02 (antibody, V domains shown)
VH: EVKLLESGGGVVQPGRSLRLSCAASGFTFKNFAMHWVRQAPGKGLEWVAVISYDGSSEDYADSVKGRFTLSRDNAKNSLYLQMNNLRAEDTAVYYCARGRRPDYWGQGTLVTVSS
VL: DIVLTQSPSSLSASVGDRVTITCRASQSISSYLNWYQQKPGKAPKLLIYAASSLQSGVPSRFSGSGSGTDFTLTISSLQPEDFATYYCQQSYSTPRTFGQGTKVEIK
B11: 11D10 (antibody, IgG4, V domains shown)
VH: EVKLLESGGGLVQPGGSLRLSCAVSGFTFSTSAMIWVRQAPGKGLEWVSFISGSTSNTYYADSVKGRFTISRDNSKNTLYLQMNGLTAEDTAVYYCARGTAAATWGQGALVTVSS
VL: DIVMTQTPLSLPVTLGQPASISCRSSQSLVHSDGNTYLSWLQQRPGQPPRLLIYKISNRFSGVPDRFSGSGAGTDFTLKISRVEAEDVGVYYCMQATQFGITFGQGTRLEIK

Tests used:
Test in all cases: ELISA, 50 nM mAb
[1] = biological target: T1, SulfoTyr C4 peptide
Experimental: (§1) Recombinant PSGL-1-hFc1 chimera protein consisting of PSGL-1's extracellular domain (ECD) served as a positive control. […] Primary antibody was added (25 ul per well) in duplicate at 50 nM in assay buffer (blocking buffer containing 0.05% Tween®20) into test and control (just blocked) wells and the plate incubated for 45 min at 37° C.

[2] = biological target: T5, Human complement C4 protein (Millipore Sigma, Cat. 204886) (human, UniProt P0C0L4 20-675; P0C0L4 680-1446; P0C0L4 1454-1744, limits assumed, natural sulfotyrosines)
T5 construct: mature
T5 sequence (P0C0L4 20-675 limits assumed, form in doubt, chain 1 of 3): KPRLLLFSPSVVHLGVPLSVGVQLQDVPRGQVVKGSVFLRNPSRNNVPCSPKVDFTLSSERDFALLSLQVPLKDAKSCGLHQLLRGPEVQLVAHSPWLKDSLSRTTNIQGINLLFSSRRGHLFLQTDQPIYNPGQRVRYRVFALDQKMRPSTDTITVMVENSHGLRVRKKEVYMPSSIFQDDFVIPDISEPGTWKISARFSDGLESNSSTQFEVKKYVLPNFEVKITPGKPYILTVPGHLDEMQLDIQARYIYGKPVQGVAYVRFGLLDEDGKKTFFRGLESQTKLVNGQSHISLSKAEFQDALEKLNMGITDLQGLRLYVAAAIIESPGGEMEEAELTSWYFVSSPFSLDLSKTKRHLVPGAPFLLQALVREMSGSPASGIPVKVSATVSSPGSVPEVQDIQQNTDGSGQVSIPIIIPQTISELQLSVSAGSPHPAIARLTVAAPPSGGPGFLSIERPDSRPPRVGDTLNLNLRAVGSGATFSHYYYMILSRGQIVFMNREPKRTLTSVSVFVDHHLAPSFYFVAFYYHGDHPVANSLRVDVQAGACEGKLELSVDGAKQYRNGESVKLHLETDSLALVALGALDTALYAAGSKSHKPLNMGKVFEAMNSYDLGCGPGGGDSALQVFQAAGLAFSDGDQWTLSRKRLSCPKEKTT
T5 sequence (P0C0L4 680-1446 limits assumed, form in doubt, chain 2 of 3): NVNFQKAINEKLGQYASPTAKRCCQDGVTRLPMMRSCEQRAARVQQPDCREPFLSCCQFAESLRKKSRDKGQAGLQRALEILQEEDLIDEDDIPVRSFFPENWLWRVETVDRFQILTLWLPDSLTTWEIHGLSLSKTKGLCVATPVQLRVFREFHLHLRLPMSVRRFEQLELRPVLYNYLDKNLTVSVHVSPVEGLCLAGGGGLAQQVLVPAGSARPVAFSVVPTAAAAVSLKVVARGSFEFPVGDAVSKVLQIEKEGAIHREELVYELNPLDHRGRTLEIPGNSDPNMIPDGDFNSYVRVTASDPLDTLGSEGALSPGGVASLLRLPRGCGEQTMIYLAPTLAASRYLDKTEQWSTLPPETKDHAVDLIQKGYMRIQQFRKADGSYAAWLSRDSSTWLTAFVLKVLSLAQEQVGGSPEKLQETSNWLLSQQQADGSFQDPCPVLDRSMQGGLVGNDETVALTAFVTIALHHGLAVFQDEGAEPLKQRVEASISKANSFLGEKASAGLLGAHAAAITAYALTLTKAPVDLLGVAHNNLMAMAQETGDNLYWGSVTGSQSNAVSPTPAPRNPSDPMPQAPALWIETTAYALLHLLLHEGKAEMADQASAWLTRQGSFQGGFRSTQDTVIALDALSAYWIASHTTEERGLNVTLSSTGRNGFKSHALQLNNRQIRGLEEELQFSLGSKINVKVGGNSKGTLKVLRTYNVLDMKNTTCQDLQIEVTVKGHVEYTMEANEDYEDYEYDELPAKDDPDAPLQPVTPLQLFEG
T5 sequence (P0C0L4 1454-1744 limits assumed, form in doubt, chain 3 of 3): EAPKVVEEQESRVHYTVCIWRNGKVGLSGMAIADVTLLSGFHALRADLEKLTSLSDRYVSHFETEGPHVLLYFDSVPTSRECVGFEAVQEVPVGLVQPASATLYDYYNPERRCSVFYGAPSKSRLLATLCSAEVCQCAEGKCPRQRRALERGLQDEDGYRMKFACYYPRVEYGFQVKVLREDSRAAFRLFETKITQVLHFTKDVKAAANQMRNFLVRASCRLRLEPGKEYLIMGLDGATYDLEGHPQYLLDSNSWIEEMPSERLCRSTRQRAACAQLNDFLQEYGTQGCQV
Experimental: as §1

[3] = biological target: T2, Human fibrinogen protein (ThermoFisher, …)
Experimental: as §1

[4] = biological target: T3, SulfoCCK biotin peptide
Experimental: as §1

[5] = biological target: T4, Sulfotyrosine D6 biotin peptide
Experimental: as §1

Binder | binding normalized to PSGL-1 [1] | binding normalized to PSGL-1 [2] | binding normalized to PSGL-1 [3] | binding normalized to PSGL-1 [4] | binding normalized to PSGL-1 [5]
B1 | 1 | 0.56 | 0.29 | 1.1 | 1.1
B2 | 1 | 1.04 | 0.44 | 0.85 | 
B3 | 0.4 | 0.61 | 0.25 | 0.53 | 0.75
B4 | 0.49 | 0.58 | 0.29 | 0.74 | 0.8
B5 | 1.19 | 1.35 | 0.23 | 0.96 | 
B6 | 0.44 | 0.44 | 0.21 | 0.41 | 0.45
B7 | 0.11 | 0.08 | 0.07 | 0.3 | 0.84
B8 | 0.54 | 0.22 | 0.05 | 0.08 | 0.6
B9 | 0.97 | 1.04 | 0.29 | 0.75 | 
B10 | 0.47 | 0.48 | 0.06 | 0.17 | 0.52
B11 | 0.07 | 0.09 | 0.03 | 0.05 | 0.08
